In publication PMC9367475:

What was measured:
[1] = molecular target: human DC-SIGN expressed on HEK 293T cells (DC-HEK) (human) (UniProt Q9NNX6)
[2] = molecular target: DC-SIGN on THP-1 cells induced with PMA and IL-4 (DC-THP-1) (human (endogenous in THP-1)) (UniProt Q9NNX6)

“recombinant SARS-CoV-2 spike protein (from UniProt P0DTC2 14-1273) (natural protein)” was tested, and the IFN-α mRNA (RT-qPCR, 6 h) in DC-HEK cells challenged with Spike protein pre-incubated with rfhSP-D 20 µg/ml, against Spike protein without rfhSP-D [1] was -2.1, the NF-κB mRNA (RT-qPCR, 6 h) in DC-HEK cells challenged with Spike protein pre-incubated with rfhSP-D 20 µg/ml, against Spike protein without rfhSP-D [1] was -1.2 and the RANTES mRNA (RT-qPCR, 6 h) in DC-HEK cells challenged with Spike protein pre-incubated with rfhSP-D 20 µg/ml, against Spike protein without rfhSP-D [1] was -1.3. It also gave a TNF-α mRNA (RT-qPCR, 6 h) in DC-HEK cells challenged with Spike protein pre-incubated with rfhSP-D 20 µg/ml, against Spike protein without rfhSP-D [1] of -3.3, an IL-1β mRNA (RT-qPCR, 6 h and 12 h: ~ -2.5 to ~ -4 log10) in DC-THP-1 cells challenged with Spike protein pre-incubated with rfhSP-D 20 µg/ml, against Spike protein without rfhSP-D [2] of -4 and an IL-6 mRNA (RT-qPCR, 12 h) in DC-THP-1 cells challenged with Spike protein pre-incubated with rfhSP-D 20 µg/ml, against Spike protein without rfhSP-D [2] of -5. For the same substance, the IL-8 mRNA (RT-qPCR, 6 h and 12 h: ~ -2.3 to ~ -4.8 log10) in DC-THP-1 cells challenged with Spike protein pre-incubated with rfhSP-D 20 µg/ml, against Spike protein without rfhSP-D [2] was -4.8, the MHC class II mRNA (RT-qPCR, 6 h and 12 h: - 2 to - 2.7 log10) in DC-THP-1 cells challenged with Spike protein pre-incubated with rfhSP-D 20 µg/ml, against Spike protein without rfhSP-D [2] was -2.7 and the NF-κB mRNA (RT-qPCR, 6 h and 12 h: ~ -1 to ~ -4 log10) in DC-THP-1 cells challenged with Spike protein pre-incubated with rfhSP-D 20 µg/ml, against Spike protein without rfhSP-D [2] was -4. For the same substance, the TNF-α mRNA (RT-qPCR, 6 h and 12 h: ~ -3.1 to ~ -6.8 log10) in DC-THP-1 cells challenged with Spike protein pre-incubated with rfhSP-D 20 µg/ml, against Spike protein without rfhSP-D [2] was -6.8.
